Measured values: patent US20210139548A1 (published 2021)
*1 amine or outer side, *2 acyl side, *3 side chain or, on linkers, in order; H or OH if unused. Side-chain parts run from the residue outwards. The star is where a group is joined. C18 diacid = O=C(O)CCCCCCCCCCCCCCCCC(=O)*; γGlu = O=C(O)[C@H](CCC(=O)[*:2])N[*:1]; Isovaleryl = CC(C)CC(=O)*; AEEA = NCCOCCOCC(=O)O

B1: Compound 54 (peptide)
peptide: Isovaleryl-APEK([AEEA-AEEA-γGlu-C18 diacid])PEEDASPEELQRYYVSLRHYYNWLTRQRY-NH2
SMILES: CC(C)CC(=O)N[C@@H](C)C(=O)N1CCC[C@H]1C(=O)N[C@@H](CCC(=O)O)C(=O)N[C@@H](CCCCNC(=O)COCCOCCNC(=O)COCCOCCNC(=O)CC[C@H](NC(=O)CCCCCCCCCCCCCCCCC(=O)O)C(=O)O)C(=O)N1CCC[C@H]1C(=O)N[C@@H](CCC(=O)O)C(=O)N[C@@H](CCC(=O)O)C(=O)N[C@@H](CC(=O)O)C(=O)N[C@@H](C)C(=O)N[C@@H](CO)C(=O)N1CCC[C@H]1C(=O)N[C@@H](CCC(=O)O)C(=O)N[C@@H](CCC(=O)O)C(=O)N[C@@H](CC(C)C)C(=O)N[C@@H](CCC(N)=O)C(=O)N[C@@H](CCCNC(=N)N)C(=O)N[C@@H](Cc1ccc(O)cc1)C(=O)N[C@@H](Cc1ccc(O)cc1)C(=O)N[C@H](C(=O)N[C@@H](CO)C(=O)N[C@@H](CC(C)C)C(=O)N[C@@H](CCCNC(=N)N)C(=O)N[C@@H](Cc1c[nH]cn1)C(=O)N[C@@H](Cc1ccc(O)cc1)C(=O)N[C@@H](Cc1ccc(O)cc1)C(=O)N[C@@H](CC(N)=O)C(=O)N[C@@H](Cc1c[nH]c2ccccc12)C(=O)N[C@@H](CC(C)C)C(=O)N[C@H](C(=O)N[C@@H](CCCNC(=N)N)C(=O)N[C@@H](CCC(N)=O)C(=O)N[C@@H](CCCNC(=N)N)C(=O)N[C@@H](Cc1ccc(O)cc1)C(N)=O)[C@@H](C)O)C(C)C
B2: Compound 11 (peptide)
peptide: Isovaleryl-APEK([AEEA-AEEA-γGlu-C18 diacid])PEEDASPEEIQQYYVSLRHYYNWLTRQRY-NH2
SMILES: CC[C@H](C)[C@H](NC(=O)[C@H](CCC(=O)O)NC(=O)[C@H](CCC(=O)O)NC(=O)[C@@H]1CCCN1C(=O)[C@H](CO)NC(=O)[C@H](C)NC(=O)[C@H](CC(=O)O)NC(=O)[C@H](CCC(=O)O)NC(=O)[C@H](CCC(=O)O)NC(=O)[C@@H]1CCCN1C(=O)[C@H](CCCCNC(=O)COCCOCCNC(=O)COCCOCCNC(=O)CC[C@H](NC(=O)CCCCCCCCCCCCCCCCC(=O)O)C(=O)O)NC(=O)[C@H](CCC(=O)O)NC(=O)[C@@H]1CCCN1C(=O)[C@H](C)NC(=O)CC(C)C)C(=O)N[C@@H](CCC(N)=O)C(=O)N[C@@H](CCC(N)=O)C(=O)N[C@@H](Cc1ccc(O)cc1)C(=O)N[C@@H](Cc1ccc(O)cc1)C(=O)N[C@H](C(=O)N[C@@H](CO)C(=O)N[C@@H](CC(C)C)C(=O)N[C@@H](CCCNC(=N)N)C(=O)N[C@@H](Cc1c[nH]cn1)C(=O)N[C@@H](Cc1ccc(O)cc1)C(=O)N[C@@H](Cc1ccc(O)cc1)C(=O)N[C@@H](CC(N)=O)C(=O)N[C@@H](Cc1c[nH]c2ccccc12)C(=O)N[C@@H](CC(C)C)C(=O)N[C@H](C(=O)N[C@@H](CCCNC(=N)N)C(=O)N[C@@H](CCC(N)=O)C(=O)N[C@@H](CCCNC(=N)N)C(=O)N[C@@H](Cc1ccc(O)cc1)C(N)=O)[C@@H](C)O)C(C)C
B3: Compound 18 (peptide)
peptide: Isovaleryl-APEK([AEEA-AEEA-γGlu-C18 diacid])PEEDAEPEELQQYYVSLRHYYNWLTRQRY-NH2
SMILES: CC(C)CC(=O)N[C@@H](C)C(=O)N1CCC[C@H]1C(=O)N[C@@H](CCC(=O)O)C(=O)N[C@@H](CCCCNC(=O)COCCOCCNC(=O)COCCOCCNC(=O)CC[C@H](NC(=O)CCCCCCCCCCCCCCCCC(=O)O)C(=O)O)C(=O)N1CCC[C@H]1C(=O)N[C@@H](CCC(=O)O)C(=O)N[C@@H](CCC(=O)O)C(=O)N[C@@H](CC(=O)O)C(=O)N[C@@H](C)C(=O)N[C@@H](CCC(=O)O)C(=O)N1CCC[C@H]1C(=O)N[C@@H](CCC(=O)O)C(=O)N[C@@H](CCC(=O)O)C(=O)N[C@@H](CC(C)C)C(=O)N[C@@H](CCC(N)=O)C(=O)N[C@@H](CCC(N)=O)C(=O)N[C@@H](Cc1ccc(O)cc1)C(=O)N[C@@H](Cc1ccc(O)cc1)C(=O)N[C@H](C(=O)N[C@@H](CO)C(=O)N[C@@H](CC(C)C)C(=O)N[C@@H](CCCNC(=N)N)C(=O)N[C@@H](Cc1c[nH]cn1)C(=O)N[C@@H](Cc1ccc(O)cc1)C(=O)N[C@@H](Cc1ccc(O)cc1)C(=O)N[C@@H](CC(N)=O)C(=O)N[C@@H](Cc1c[nH]c2ccccc12)C(=O)N[C@@H](CC(C)C)C(=O)N[C@H](C(=O)N[C@@H](CCCNC(=N)N)C(=O)N[C@@H](CCC(N)=O)C(=O)N[C@@H](CCCNC(=N)N)C(=O)N[C@@H](Cc1ccc(O)cc1)C(N)=O)[C@@H](C)O)C(C)C
B4: Compound 244 (peptide)
peptide: Isovaleryl-APEK([AEEA-AEEA-γGlu-C18 diacid])PEEDAEPAELQRYYVSLRHYYNWLTRQRY-NH2
SMILES: CC(C)CC(=O)N[C@@H](C)C(=O)N1CCC[C@H]1C(=O)N[C@@H](CCC(=O)O)C(=O)N[C@@H](CCCCNC(=O)COCCOCCNC(=O)COCCOCCNC(=O)CC[C@H](NC(=O)CCCCCCCCCCCCCCCCC(=O)O)C(=O)O)C(=O)N1CCC[C@H]1C(=O)N[C@@H](CCC(=O)O)C(=O)N[C@@H](CCC(=O)O)C(=O)N[C@@H](CC(=O)O)C(=O)N[C@@H](C)C(=O)N[C@@H](CCC(=O)O)C(=O)N1CCC[C@H]1C(=O)N[C@@H](C)C(=O)N[C@@H](CCC(=O)O)C(=O)N[C@@H](CC(C)C)C(=O)N[C@@H](CCC(N)=O)C(=O)N[C@@H](CCCNC(=N)N)C(=O)N[C@@H](Cc1ccc(O)cc1)C(=O)N[C@@H](Cc1ccc(O)cc1)C(=O)N[C@H](C(=O)N[C@@H](CO)C(=O)N[C@@H](CC(C)C)C(=O)N[C@@H](CCCNC(=N)N)C(=O)N[C@@H](Cc1c[nH]cn1)C(=O)N[C@@H](Cc1ccc(O)cc1)C(=O)N[C@@H](Cc1ccc(O)cc1)C(=O)N[C@@H](CC(N)=O)C(=O)N[C@@H](Cc1c[nH]c2ccccc12)C(=O)N[C@@H](CC(C)C)C(=O)N[C@H](C(=O)N[C@@H](CCCNC(=N)N)C(=O)N[C@@H](CCC(N)=O)C(=O)N[C@@H](CCCNC(=N)N)C(=O)N[C@@H](Cc1ccc(O)cc1)C(N)=O)[C@@H](C)O)C(C)C

Biological target: T1, human neuropeptide Y2 receptor (human, UniProt P49146 1-381)
T1 construct: whole, on cells; also called hNPY2 receptor; hNPY2-R
T1 sequence (looked up): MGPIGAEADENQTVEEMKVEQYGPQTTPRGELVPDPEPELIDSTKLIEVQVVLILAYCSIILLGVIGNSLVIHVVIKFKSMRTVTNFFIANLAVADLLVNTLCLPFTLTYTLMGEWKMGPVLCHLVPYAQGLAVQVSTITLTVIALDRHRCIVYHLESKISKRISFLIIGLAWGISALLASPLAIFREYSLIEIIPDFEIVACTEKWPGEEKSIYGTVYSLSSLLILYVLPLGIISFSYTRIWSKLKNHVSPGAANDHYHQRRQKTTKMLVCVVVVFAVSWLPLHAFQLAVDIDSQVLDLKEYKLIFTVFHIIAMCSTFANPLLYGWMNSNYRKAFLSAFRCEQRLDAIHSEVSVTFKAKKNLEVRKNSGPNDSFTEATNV
Experiment: radioligand competition (125I-PYY(1-36)), hNPY2R membranes
In short: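 Commercial human Y2 receptor membranes (0.5 μg protein/well) were incubated with peptide for 2 h at room temperature in 50 mM HEPES, 5 mM MgCl₂, 1 mM CaCl₂, pH 7.4, with 0.2% ovalbumin. Bound radioligand was separated on PEI-soaked GF/C filters and counted by scintillation, and IC₅₀ came from nonlinear sigmoidal regression.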

How did the Ki turn out when B1 was run?
The Ki was 0.95 nM.

For B2, which Ki is on record?
Its Ki is 0.74 nM.

For B3, which Ki is on record?
Its Ki is 3.71 nM.

B4 was tested. Which Ki did it give?
Its Ki is 1.84 nM.

Biological target: T2, human NPY5 receptor (human, UniProt Q15761 1-445)
T2 sequence (looked up): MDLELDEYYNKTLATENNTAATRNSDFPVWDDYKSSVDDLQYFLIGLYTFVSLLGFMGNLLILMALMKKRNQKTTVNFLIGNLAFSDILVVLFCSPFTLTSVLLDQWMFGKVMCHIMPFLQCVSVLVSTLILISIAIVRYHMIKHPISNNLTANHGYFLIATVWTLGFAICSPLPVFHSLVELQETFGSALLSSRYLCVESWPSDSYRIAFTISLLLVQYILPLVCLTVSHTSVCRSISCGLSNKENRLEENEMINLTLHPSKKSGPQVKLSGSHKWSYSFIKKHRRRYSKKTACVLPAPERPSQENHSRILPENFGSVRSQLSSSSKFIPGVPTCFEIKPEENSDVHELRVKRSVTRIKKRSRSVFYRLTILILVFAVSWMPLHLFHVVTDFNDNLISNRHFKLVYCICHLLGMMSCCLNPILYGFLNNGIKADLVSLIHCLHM
Experiment: cell-based or functional assay

B1 was tested. Which “EC50 (HTRF cAMP Gi assay)” value did it give?
Its value is > 5000 nM.

With B2 as the binder, how does the “EC50 (HTRF cAMP Gi assay)” value read?
The value was > 5000 nM.

Which “EC50 (HTRF cAMP Gi assay)” value does the source give for B3 here?
The value was > 5000 nM.

Isovaleryl-APEK([AEEA-AEEA-γGlu-C18 diacid])PEEDATPEEIQRYYVSLRHYYNWLTRQRY-NH2 [Compound 171] was tested. Which “EC50 (HTRF cAMP Gi assay)” value did it give?
The value was > 5000 nM.

Biological target: T3, human NPY1 receptor (human, UniProt P25929 1-384)
T3 sequence (looked up): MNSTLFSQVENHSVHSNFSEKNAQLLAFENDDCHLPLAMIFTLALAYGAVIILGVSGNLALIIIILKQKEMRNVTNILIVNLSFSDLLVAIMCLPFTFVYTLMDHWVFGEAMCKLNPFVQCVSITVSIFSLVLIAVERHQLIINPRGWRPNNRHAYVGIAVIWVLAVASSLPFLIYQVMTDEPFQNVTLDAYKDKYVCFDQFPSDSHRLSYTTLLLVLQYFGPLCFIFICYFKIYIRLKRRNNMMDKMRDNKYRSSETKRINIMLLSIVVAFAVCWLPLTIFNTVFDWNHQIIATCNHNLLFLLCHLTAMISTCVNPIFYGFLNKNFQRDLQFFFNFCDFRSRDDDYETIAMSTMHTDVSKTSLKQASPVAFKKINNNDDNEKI
Experiment: cell-based or functional assay

How did the “EC50 (HTRF cAMP Gi assay)” value turn out when B1 was run?
The value was > 5000 nM.

For B2, which “EC50 (HTRF cAMP Gi assay)” value is on record?
Its value is > 5000 nM.

With B3 as the binder, how does the “EC50 (HTRF cAMP Gi assay)” value read?
Its value is > 5000 nM.

For Isovaleryl-APEK([AEEA-AEEA-γGlu-C18 diacid])PEEDATPEEIQRYYVSLRHYYNWLTRQRY-NH2 [Compound 171], which “EC50 (HTRF cAMP Gi assay)” value is on record?
Its value is > 5000 nM.

Biological target: T1, human neuropeptide Y2 receptor
Experiment: cell-based or functional assay

Which “EC50 (HTRF cAMP Gi assay)” value does the source give for B1 here?
Its value is 0.131 nM.

Which “EC50 (HTRF cAMP Gi assay)” value does the source give for B2 here?
Its value is 0.334 nM.

For B3, which “EC50 (HTRF cAMP Gi assay)” value is on record?
The value was 0.167 nM.

Biological target: human NPY4 receptor (human, UniProt P50391 1-375)
Sequence (P50391 whole entry): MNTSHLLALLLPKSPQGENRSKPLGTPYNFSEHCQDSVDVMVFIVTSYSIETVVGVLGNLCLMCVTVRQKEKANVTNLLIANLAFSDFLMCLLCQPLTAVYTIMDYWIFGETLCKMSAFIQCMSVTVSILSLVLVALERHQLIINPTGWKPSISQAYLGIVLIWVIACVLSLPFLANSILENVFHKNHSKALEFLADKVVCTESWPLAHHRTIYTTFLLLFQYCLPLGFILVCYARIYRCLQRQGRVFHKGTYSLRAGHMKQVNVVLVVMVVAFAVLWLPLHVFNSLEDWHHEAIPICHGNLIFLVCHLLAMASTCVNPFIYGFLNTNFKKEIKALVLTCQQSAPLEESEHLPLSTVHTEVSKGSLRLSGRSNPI
Experiment: cell-based or functional assay

Which “EC50 (HTRF cAMP Gi assay)” value does the source give for B1 here?
The value was > 5000 nM.

B2 was tested. Which “EC50 (HTRF cAMP Gi assay)” value did it give?
The value was > 5000 nM.

How did the “EC50 (HTRF cAMP Gi assay)” value turn out when B3 was run?
Its value is > 5000 nM.

With Isovaleryl-APEK([AEEA-AEEA-γGlu-C18 diacid])PEEDATPEEIQRYYVSLRHYYNWLTRQRY-NH2 [Compound 171] as the binder, how does the “EC50 (HTRF cAMP Gi assay)” value read?
Its value is > 5000 nM.
